Test results reported in publication PMC8784393 (ACS applied materials & interfaces, 2021).

Experiments:
NCI-H358 cells [1] = experiment: Cell viability after 48 h treatment; assay type: cell-based, human
SKOV-3 cells = experiment: Cell viability after 48 h treatment; assay type: cell-based, human
NCI-H358 xenografts [2] = experiment: Tumor growth inhibition in NCI-H358 xenograft; assay type: in vivo, athymic nude mice; settings: 3 mg/kg MEL-basis i.v. every 3 days, 30 days, n = 4; vehicle 453%
ζ potential measurement = assay type: physicochemical; settings: in Nanopure water
NCI-H358 xenografts [3] = experiment: Biodistribution by fluorescence imaging in NCI-H358 xenograft mice; assay type: in vivo; settings: i.v. 3 mg/kg MEL, 24 h post-injection, n = 2
human plasma = experiment: Activated partial thromboplastin time; settings: 20 μM MEL concentration
[4] = Plasma pharmacokinetics after tail vein injection; assay type: in vivo; settings: C57BL/6 mice, i.v. tail vein, Cy5.5-labeled, two-compartment model, n = 5
NCI-H358 cells [5] = experiment: Cellular uptake kinetics by flow cytometry; assay type: cell-based, human; settings: 1 μM of MEL for 1–4 h
SKOV3 cells = experiment: Cellular uptake kinetics by flow cytometry; assay type: cell-based, human; settings: 1 μM of MEL for 1–4 h
[6] = Innate immune response, cytokine ELISA; assay type: in vivo; settings: C57BL/6 mice, 3 mg/kg MEL, blood 4 h after injection, n = 5
α-chymotrypsin = α-chymotrypsin (Bos taurus, UniProt P00766); experiment: Proteinase assay, α-chymotrypsin degradation by PAGE; assay type: in vitro ADME; settings: bands of intact MEL diminished significantly after 15 min
human red blood cells = experiment: Hemolysis assay, hemoglobin released from red blood cells; assay type: cell-based; settings: hemoglobin in supernatant, spectrophotometric
Dynamic light scattering = assay type: physicochemical; settings: DLS intensity average, scattering angle 90°, room temperature, Nanopure water

| Substance | cytotoxicity (cell viability, in words) (NCI-H358 cells [1]) | cytotoxicity (cell viability, in words) (SKOV-3 cells) | tumor growth by day 30 (% of original size) (NCI-H358 xenografts [2]) | ζ potential (ζ potential measurement) | tumor vs. liver ratio (relative fluorescent intensities) (NCI-H358 xenografts [3]) | tumor vs. spleen ratio (relative fluorescent intensities) (NCI-H358 xenografts [3]) | effect on coagulation (clotting) time, aPTT (human plasma) | elimination half-life (t1/2β) [4] | cellular uptake (in words) (NCI-H358 cells [5]) | cellular uptake (in words) (SKOV3 cells) | interleukin-6 (IL-6) activation [6] | α-chymotrypsin digestion (in words) (α-chymotrypsin) | hemolysis of RBCs at 60 μM (human red blood cells; 60 μM) | Dh (hydrodynamic diameter, DLS) (Dynamic light scattering) | hemolysis at 1 μM (human red blood cells; 1 μM) |
| --- | --- | --- | --- | --- | --- | --- | --- | --- | --- | --- | --- | --- | --- | --- | --- |
| pacMELNClv: non-cleavable conjugate of MEL and bottlebrush PEG, negative control | no evident cytotoxicity | no evident cytotoxicity |  |  |  |  |  |  |  |  |  |  |  |  |  |
| melittin |  |  | did not lead to statistically meaningful repression of tumor growth | ~ 8 mV | 0.61 | 0.55 | doubling the coagulation times | 43 min | fast and accelerating process | fast and accelerating process | induces activation | digested rapidly | near-complete hemolysis |  |  |
| YPEG-MEL: conjugate of low PEG density: MEL on Y-shaped PEG, Mn 40 kDa, each arm 20 kDa | reduced but still apparent cytotoxicity | reduced but still apparent cytotoxicity |  |  |  |  |  |  |  |  |  | digested rapidly |  | 21.0 ± 0.5 nm | 16% |
